Legend:
Details in all cases: remark: other sources report otherwise
HLA-A24:02 (human) [1] = experiment: peptide-HLA affinity, Example 9
HLA-A02:01 (human) [2] = experiment: peptide-HLA stability, Example 9
HLA-A24:02 (human) [3] = experiment: peptide-HLA stability, Example 9
HLA-B08:01 (human) [4] = experiment: peptide-HLA stability, Example 9
HLA-A02:01 (human) [5] = experiment: pMHC-I dissociation, 125I-b2m, 37C; average of 2
HLA-B08:01 (human) [6] = experiment: pMHC-I dissociation, 125I-b2m, 37C; average of 2
HLA-A02:01 (human) [7] = experiment: pMHC-I dissociation, 125I-b2m, 37C; experiment 1
HLA-B08:01 (human) [8] = experiment: pMHC-I dissociation, 125I-b2m, 37C; experiment 1
HLA-A02:01 (human) [9] = experiment: pMHC-I dissociation, 125I-b2m, 37C; experiment 2
HLA-B08:01 (human) [10] = experiment: pMHC-I dissociation, 125I-b2m, 37C; experiment 2
HLA-A02:01 (human) [11] = experiment: peptide-HLA affinity, Example 9
HLA-A02:01 (human) [12] = experiment: peptide-HLA affinity, Example 36
HLA-B07:02 (human) [13] = experiment: peptide-HLA affinity, Example 36
HLA-B08:01 (human) [14] = experiment: peptide-HLA affinity, Example 36
HLA-A02:01 (human) [15] = experiment: peptide-HLA stability, Example 36
HLA-B07:02 (human) [16] = experiment: peptide-HLA stability, Example 36
HLA-B08:01 (human) [17] = experiment: peptide-HLA stability, Example 36
HLA-A01:01 (human) [18] = experiment: peptide-HLA affinity, Example 41
HLA-A01:01 (human) [19] = experiment: peptide-HLA stability, Example 41
HLA-A02:01 (human) [20] = experiment: peptide-HLA affinity, Example 41
HLA-A02:01 (human) [21] = experiment: peptide-HLA stability, Example 41
HLA-B07:02 (human) [22] = experiment: peptide-HLA affinity, Example 41
HLA-B07:02 (human) [23] = experiment: peptide-HLA stability, Example 41
HLA-B08:01 (human) [24] = experiment: peptide-HLA stability, Example 41

B1: … (peptide)
peptide: YMFLKAESKI
Observed MHC affinity (HLA-A24:02 (human) [1]): 7 µM
Observed MHC stability (HLA-A02:01 (human) [2]): 0.6 h
Observed MHC stability (HLA-A24:02 (human) [3]): 1.2 h
Observed MHC stability (HLA-B08:01 (human) [4]): 0.4 h
half-life (HLA-A02:01 (human) [5]): 36 min
half-life (HLA-B08:01 (human) [6]): 24 min
half-life (HLA-A02:01 (human) [7]): 36 min
half-life (HLA-B08:01 (human) [8]): 24 min
half-life (HLA-A02:01 (human) [9]): 36 min
half-life (HLA-B08:01 (human) [10]): 30 min

B2: … (peptide)
peptide: ALQPLQPHA
Observed MHC affinity (HLA-A02:01 (human) [11]): 604 nM
Observed MHC stability (HLA-A02:01 (human) [2]): 1.5 h

B3: … (peptide)
peptide: SLLNYLREM
Affinity (HLA-A02:01 (human) [12]): 67.7 nM
Affinity (HLA-B07:02 (human) [13]): 866 nM
Affinity (HLA-B08:01 (human) [14]): 960 nM
Stability (1/2 hr) (HLA-A02:01 (human) [15]): 3.04 h
Stability (1/2 hr) (HLA-B07:02 (human) [16]): 0 h
Stability (1/2 hr) (HLA-B08:01 (human) [17]): 0 h

B4: … (peptide)
peptide: MANGSLLNYL
Affinity (HLA-A02:01 (human) [12]): 1010 nM
Stability (1/2 hr) (HLA-A02:01 (human) [15]): 0 h

B5: … (peptide)
peptide: YMANGSLLN
Affinity (HLA-A02:01 (human) [12]): 4000 nM
Stability (1/2 hr) (HLA-A02:01 (human) [15]): 0 h

B6: … (peptide)
peptide: LTSTVQLIM
Affinity (HLA-A01:01 (human) [18]): 2.89 µM
Stability (1/2 hr) (HLA-A01:01 (human) [19]): 0.104 h

B7: … (peptide)
peptide: CLTSTVQLIM
Affinity (HLA-A01:01 (human) [18]): 8.28 µM
Affinity (HLA-A02:01 (human) [20]): 537 nM
Stability (1/2 hr) (HLA-A01:01 (human) [19]): 0 h
Stability (1/2 hr) (HLA-A02:01 (human) [21]): 0 h

B8: … (peptide)
peptide: MQLMPFGCLL
Affinity (HLA-A02:01 (human) [20]): 16.3 nM
Stability (1/2 hr) (HLA-A02:01 (human) [21]): 0.381 h

B9: … (peptide)
peptide: MQLMPFGCL
Affinity (HLA-A02:01 (human) [20]): 116 nM
Affinity (HLA-B07:02 (human) [22]): 1590 nM
Stability (1/2 hr) (HLA-A02:01 (human) [21]): 0.368 h
Stability (1/2 hr) (HLA-B07:02 (human) [23]): 0 h
Stability (1/2 hr) (HLA-B08:01 (human) [24]): 0 h

B10: … (peptide)
peptide: IMQLMPFGCL
Affinity (HLA-A02:01 (human) [20]): 653 nM
Stability (1/2 hr) (HLA-A02:01 (human) [21]): 0.516 h
Stability (1/2 hr) (HLA-B08:01 (human) [24]): 0 h

B11: … (peptide)
peptide: IMQLMPFGC
Affinity (HLA-A02:01 (human) [20]): 1210 nM
Stability (1/2 hr) (HLA-A02:01 (human) [21]): 0.37 h

B12: … (peptide)
peptide: LIMQLMPFG
Affinity (HLA-A02:01 (human) [20]): 3340 nM
Stability (1/2 hr) (HLA-A02:01 (human) [21]): 0 h

B13: … (peptide)
peptide: STVQLIMQL
Affinity (HLA-A02:01 (human) [20]): 7260 nM
Stability (1/2 hr) (HLA-A02:01 (human) [21]): 0 h
